Biological target: E1/E2 complex (Bovine papillomavirus type 1) (UniProt P03116+P03122)
Assay: footprint
Settings: E1 plus 100 ng E2: equivalent protection of E1 site at 10-fold lower E1 than without E2

Chain of UniProt P03116 (P03116 whole entry, chain 1 of 2): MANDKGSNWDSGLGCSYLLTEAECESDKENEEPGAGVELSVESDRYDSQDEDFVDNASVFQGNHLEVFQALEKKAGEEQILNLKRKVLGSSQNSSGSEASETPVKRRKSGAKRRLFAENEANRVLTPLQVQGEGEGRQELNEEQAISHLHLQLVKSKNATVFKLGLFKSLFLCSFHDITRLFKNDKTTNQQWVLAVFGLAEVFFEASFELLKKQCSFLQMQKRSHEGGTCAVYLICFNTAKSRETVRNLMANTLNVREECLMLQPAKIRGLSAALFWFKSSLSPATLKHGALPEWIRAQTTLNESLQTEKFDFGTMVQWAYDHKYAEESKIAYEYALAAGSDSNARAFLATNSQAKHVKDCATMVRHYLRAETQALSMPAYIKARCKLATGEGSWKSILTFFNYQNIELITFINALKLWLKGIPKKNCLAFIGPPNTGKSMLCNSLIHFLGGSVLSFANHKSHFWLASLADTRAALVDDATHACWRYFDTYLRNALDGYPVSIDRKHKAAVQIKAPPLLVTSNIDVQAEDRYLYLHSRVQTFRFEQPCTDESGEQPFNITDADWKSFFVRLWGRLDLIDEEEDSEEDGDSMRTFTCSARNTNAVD
Chain of UniProt P03116 (P03122 whole entry, chain 2 of 2): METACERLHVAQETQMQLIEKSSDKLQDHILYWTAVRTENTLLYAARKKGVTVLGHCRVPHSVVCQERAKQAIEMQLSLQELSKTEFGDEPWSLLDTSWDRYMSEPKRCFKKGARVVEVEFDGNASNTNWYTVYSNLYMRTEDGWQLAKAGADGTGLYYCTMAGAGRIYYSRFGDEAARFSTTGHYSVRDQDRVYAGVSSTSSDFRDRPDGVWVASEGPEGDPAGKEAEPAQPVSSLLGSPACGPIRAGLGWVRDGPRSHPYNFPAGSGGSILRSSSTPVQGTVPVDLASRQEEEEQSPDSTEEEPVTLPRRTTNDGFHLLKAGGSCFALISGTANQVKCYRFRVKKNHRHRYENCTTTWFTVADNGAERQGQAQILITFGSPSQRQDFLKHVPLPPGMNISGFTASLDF

Work on “ACCGAAACCGGTAAGTAAAGACTATGTATTTTTTCCCAGTGAATANBBRBBRBBNNCNNBNNBCACACCATCACCGTT (double strand) [pKSO BPV origin fragment (7805-100)]” yielded a binding signal of 10 fold.
